Laboratory results taken from paper PMC11813153, “Extended receptor repertoire of an adenovirus associated with human obesity” (PLOS Pathogens, 2025).

Legend:
[1] = target: HAdV-D36 fiber knob domain (FK) (Human adenovirus type 36 (HAdV-D36), strain 275); experiment: crystal structure; fiber knobs crystallised alone or co-crystallised with 10 mM carbohydrate; HAdV-D36 FK: hanging drop, PEG 3,350, NH4Ac, 0.1 M Bis-Tris pH 5.5, 4 C
[2] = target: the molecule itself; experiment: as above

Row | Molecule | stoichiometry N [1] | stoichiometry N [2]
1 | HAdV-D36 fiber knob domain (FK) (domain or fragment) | 3 | 
2 | HAdV-D37 fiber knob (FK) (domain or fragment, fiber protein of human adenovirus type 37 (HAdV-D37), knob domain; checked against GenBank ABK59080.1 (HAdV-D37 fiber); also called HAdV-D37 FK; HAdV-D37 wt FK; source: construct, expression and purification as described previously [100]) GYLVAWNPKYDTRTLWTTPDTSPNCTIAQDKDSKLTLVLTKCGSQILANVSLIVVAGKYHIINNKTNPKIKSFTIKLLFNKNGVLLDNSNLGKAYWNFRSGNSNVSTAYEKAIGFMPNLVAYPKPSNSKKYARDIVYGTIYLGGKPDQPAVIKTTFNQETGCEYSITFNFSWSKTYENVEFETTSFTFSYIAQE |  | 3
